In PMC11091976, “Shorter Peptide Nucleic Acid Probes Improve Affibody-Mediated Peptide Nucleic Acid-Based Pretargeting” (ACS Pharmacology & Translational Science, 2024):

Legend:
[1] = system: SKOV-3 cells; test: Cellular processing and retention (acid wash), SKOV-3; assay type: cell-based, human; conditions: SKOV-3 pretreated with 1 nM nonlabeled Z-HP9; labeled secondary probe 10 nM; n = 3
Description: (§1) After a 24 h incubation period, the total cell-associated bound activity was recorded as 72.0 ± 1.7 and 65.2 ± 1.8% for [^177Lu]Lu-Z-HP9, and 74.5 ± 0.2 and 55.6 ± 2.4% for [^177Lu]Lu-Z-HP12 on SKOV-3 and BT-474 cells, respectively. The internalized fractions were quantified as 9.7 ± 1.1 and 10.4 ± 0.6% for [^177Lu]Lu-Z-HP9 and [^177Lu]Lu-Z-HP12 after 24 h of incubation. The pattern was similar for both HER2-expressing cell lines, with slow internalization, which is typical for affibody molecules.
(§2) Figure 5 Cellular processing and retention of [^177Lu]Lu-Z-HP9 (A,B), [^177Lu]Lu-Z-HP12 (C,D), [^177Lu]Lu-HP16 (E,F), and [^177Lu]Lu-HP20 (G, H) on SKOV-3 (A,C,E,G) and BT-474 (B,D,F,H) cells after interrupted incubation with labeled compounds. […] The data are presented as an average value from three samples ±SD.
(§3) The pattern of internalization of the labeled secondary probes by cancer cells, which were pretreated with primary probes, was similar to the pattern for primary agents. […]
(§4) A validated acid-wash method[53] was used for cellular processing and retention of radiolabeled probes by SKOV-3 and BT-474 using interrupted incubation procedure. […] The radioactivity in each fraction was measured using an automated gamma spectrometer. The radioactivity of acidic and alkaline fractions was considered as membrane and internalized parts, respectively. […]

[2] = in vivo; parameters: species or system BALB/C nu/nu mice; conditions: female, BALB/C nu/nu, mouse, total radioactivity
From the text: Animal studies were planned in agreement with EU Directive 2010/63/EU for animal experiments and Swedish national legislation concerning the protection of laboratory animals and were approved by the Ethics Committee for Animal Research in Uppsala, Sweden (animal permission C4/16). HER2-positive xenografts were implanted by subcutaneous injection of 10^7 SKOV-3 cells in the right hind legs of female BALB/C nu/nu mice. Three weeks after implantation, mice were randomized into 8 groups, with 4 mice in each group. At the time of the experiment, the average animal weight was 20 ± 1 g. The average tumor weight was 0.26 ± 0.14 g. The mice were euthanized at predetermined time points by overdose of Ketamine/Xylazine anesthesia, followed by heart puncture. The organs of interest such as blood, lung, liver, spleen, kidney, muscle, bone, and tumor were collected, weighed, and subsequently their radioactivity was measured. Organs and tumor uptake were calculated as the percentage of the injected dose per gram of the sample (%ID/g).
To evaluate in vivo specificity, 2 groups of mice were injected with [^177Lu]Lu-HP16 and [^177Lu]Lu-HP20 without preinjection of the primary agent. At 4 h postinjection, the mice were euthanized and treated as mentioned above.
Table S2. Comparative biodistribution of [177Lu]Lu-HP16 and [177Lu]Lu-HP20 in BALB/C nu/nu mice bearing SKOV3
xenografts at 4 h post-injection without pre-injection of a primary agent. Data are presented as an average of %ID/g ± SD, n
*Significant (p<0.05) difference; **The gastrointestinal (GI) and carcass data are expressed as %ID per whole sample.

[3] = system: HER2-expressing cell lines pretreated with Z-HP9; test: In vitro pretargeting specificity of secondary probes; assay type: cell-based, human; conditions: Z-HP9 1 nM, labeled secondary probe 10 nM, 1 h 37 °C; n = 3
Description: Figure 4 In vitro binding specificity of primary agents, (A) [^177Lu]Lu-Z-HP9 and (B) [^177Lu]Lu-Z-HP12 on SKOV-3 and BT-474 cell lines. […] In the second and third groups, cells were incubated with a large amount of unlabeled anti-HER2 ZHER2:342 affibody molecule and unlabeled secondary agent before the addition of radiolabeled secondary agent, respectively. A radiolabeled secondary agent was added directly to cells in the fourth group without adding a primary agent. The data are presented as an average value from three samples ±SD.
Figure 4C,D further elucidates the specificity of PNA-mediated pretargeting on HER2-expressing cell lines when cells were pretreated with a primary agent. […] These findings collectively affirm the success of the in vitro pretargeting approach.
Thereafter, ^177Lu-secondary probe (10 nM) was added, and cells were incubated for 1 h at 37 °C. After that, cells were treated as mentioned above. […] Then, a radiolabeled secondary probe (10 nM) was added and incubated for 1 h at 37 °C. Further treatment was the same as pretargeting group. […] Further treatment was the same as mentioned above. To evaluate unspecific binding, the radiolabeled secondary probe (10 nM) was added to the cells without any pretreatment with the primary agent and incubated for 1 h at 37 °C. After incubation, the cells were washed and treated as mentioned above.

[4] = system: BT-474 cells; test: Cellular processing and retention (acid wash), BT-474; assay type: cell-based, human; conditions: BT-474 pretreated with 1 nM nonlabeled Z-HP9; labeled secondary probe 10 nM; n = 3
Description: as §1, §2, §3, §4

Compound | total cell-associated bound activity after 24 h [1] [%] | tissue uptake at 4 h ([2]; Blood) [%ID/g] | tissue uptake at 4 h ([2]; Bone) [%ID/g] | tissue uptake dose at 4 h ([2]; Carcass) [%ID] | tissue uptake dose at 4 h ([2]; GI) [%ID] | tissue uptake at 4 h ([2]; Kidney) [%ID/g] | tissue uptake at 4 h ([2]; Liver) [%ID/g] | tissue uptake at 4 h ([2]; Lung) [%ID/g] | tissue uptake at 4 h ([2]; Muscle) [%ID/g] | tissue uptake at 4 h ([2]; Spleen) [%ID/g] | tissue uptake at 4 h ([2]; Tumour) [%ID/g] | binding to Z-HP9 pretreated cells relative to other treated groups [3] [fold] | total cell-associated bound activity after 24 h [4] [%]
NC(=O)[C@H](Cc1ccc(O)cc1)NC(=O)[C@H](CCC(=O)O)NC(=O)[C@H](CCC(=O)O)NC(=O)CN(CCNC(=O)CN(CCNC(=O)CN(CCNC(=O)CN(CCNC(=O)CN(CCNC(=O)CN(CCNC(=O)CN(CCNC(=O)CN(CCNC(=O)CN(CCNC(=O)[C@H](CO)NC(=O)[C@H](CO)NC(=O)COCCOCCNC(=O)CN1CCN(CC(=O)O)CCN(CC(=O)O)CCN(CC(=O)O)CC1)C(=O)Cn1cnc2c(N)ncnc21)C(=O)Cn1cnc2c(N)ncnc21)C(=O)Cn1ccc(N)nc1=O)C(=O)Cn1cnc2c(N)ncnc21)C(=O)Cn1ccc(N)nc1=O)C(=O)Cn1ccc(N)nc1=O)C(=O)Cn1cnc2c(N)ncnc21)C(=O)Cn1cnc2c(=O)[nH]c(N)nc21)C(=O)Cn1cnc2c(=O)[nH]c(N)nc21 [[^177Lu]Lu-HP16, metal not drawn] | 55.0 ± 1.0 | 0.02 ± 0.02 | 0.04 ± 0.01 | 1.49 ± 0.42 | 0.61 ± 0.16 | 4.41 ± 0.61 | 0.13 ± 0.01 | 0.1 ± 0.03 | 0.05 ± 0.02 | 0.08 ± 0.01 | 0.09 ± 0.01 | 11 | 26.1 ± 1.2
NC(=O)[C@H](Cc1ccc(O)cc1)NC(=O)[C@H](CCC(=O)O)NC(=O)[C@H](CCC(=O)O)NC(=O)CN(CCNC(=O)CN(CCNC(=O)CN(CCNC(=O)CN(CCNC(=O)CN(CCNC(=O)CN(CCNC(=O)CN(CCNC(=O)CN(CCNC(=O)[C@H](CO)NC(=O)[C@H](CO)NC(=O)COCCOCCNC(=O)CN1CCN(CC(=O)O)CCN(CC(=O)O)CCN(CC(=O)O)CC1)C(=O)Cn1cnc2c(N)ncnc21)C(=O)Cn1ccc(N)nc1=O)C(=O)Cn1cnc2c(N)ncnc21)C(=O)Cn1ccc(N)nc1=O)C(=O)Cn1ccc(N)nc1=O)C(=O)Cn1cnc2c(N)ncnc21)C(=O)Cn1cnc2c(=O)[nH]c(N)nc21)C(=O)Cn1cnc2c(=O)[nH]c(N)nc21 [[^177Lu]Lu-HP20, metal not drawn] | 52.8 ± 0.4 | 0.01 ± 0.004 | 0.03 ± 0.02 | 1.1 ± 0.34 | 1.25 ± 1.06 | 4.86 ± 0.85 | 0.15 ± 0.01 | 0.07 ± 0.01 | 0.02 ± 0.01 | 0.07 ± 0.01 | 0.11 ± 0.03 | 11 | 42.2 ± 2.0
